What was measured:
[1] = target: human erythrocytes, untreated (uncharacterized neuraminidase sensitive, trypsin resistant receptor on the surface of the erythrocyte) (human); test: erythrocyte rosetting on transfected COS7 cells, normalized to 5% transfection efficiency
[2] = target: neuraminidase-treated human erythrocytes (human); test: erythrocyte rosetting on transfected COS7 cells, erythrocytes pretreated with neuraminidase

| Substance | binding activity (%) [1] | fold reduction of binding against untreated erythrocytes [2] |
| --- | --- | --- |
| PfRH1 region IV (RIV) expressed on the surface of COS7 cells as a GFP fusion protein | < 10% |  |
| PfRH1 region III (RIII) expressed on the surface of COS7 cells as a GFP fusion protein | < 10% |  |
| PfRH1 region II (RII) expressed on the surface of COS7 cells as a GFP fusion protein (from UniProt P86148 334-1000) | > 70% | 10 fold |
| PfRH1 region VI (RVI) expressed on the surface of COS7 cells as a GFP fusion protein | < 10% |  |

From patent US20100297131A1
